According to patent publication US20240067947:

Biological target: T1, VWF-73 FRETS substrate, P04275
T1 chain: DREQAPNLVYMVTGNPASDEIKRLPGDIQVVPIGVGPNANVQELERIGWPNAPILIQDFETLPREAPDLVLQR

B1: mrADAMTS13 (truncated modified human recombinant ADAMTS13) (protein)
chain: AAGGILHLELLVAVGPDVFQAHQEDTERYVLTNLNIGAELLRDPSLGAQFRVHLVKMVILTEPEGAPNITANLTSSLLSVCGWSQTINPEDDTDPGHADLVLYITRFDLELPDGNRQVRGVTQLGGACSPTWSCLITEDTGFDLGVTIAHEIGHSFGLEHDGAPGSGCGPSGHVMASDGAAPRAGLAWSPCSRRQLLSLLSAGRARCVWDPPRPQPGSAGHPPDAQPGLYYSANEQCRVAFGPKAVACTFAREHLDMCQALSCHTDPLDQSSCSRLLVPLLDGTECGVEKWCSKGRCRSLVELTPIAAVHGRWSSWGPRSPCSRSCGGGVVTRRRQCNNPRPAFGGRACVGADLQAEMCNTQACEKTQLEFMSQQCARTDGQPLRSSPGGASFYHWGAAVPHSQGDALCRHMCRAIGESFIMKRGDSFLDGTRCMPSGPREDGTLSLCVSGSCRTFGCDGRMDSQQVWDRCQVCGGDNSTCSPRKGSFTAGRAREYVTFLTVTPNLTSVYIANHRPLFTHLAVRIGGRYVVAGKMSISPNTTYPSLLEDGRVEYRVALTEDRLPRLEEIRIWGPLQEDADIQVYRRYGEEYGNLTRPDITFTYFQPKPRQAKGELGTELGSEGKPIPNPLLGLDSTRTGHHHHHH
**Q.** What does the source list for B1?
**A.** ADAMTS13 activity (VWF-73 FRETS assay): demonstrated enhanced activity of mrADAMTS13 compared to truncated wild type ADAMTS13; ADAMTS13 specific activity of mrADAMTS13 released from PLGA microparticles (FRETS VWF-73 fluorescent emission): This data demonstrates active ADAMTS13 enzyme is present in all samples including at 120 hours

B2: Truncated wild-type ADAMTS13 (protein)
chain: AAGGILHLELLVAVGPDVFQAHQEDTERYVLTNLNIGAELLRDPSLGAQFRVHLVKMVILTEPEGAPNITANLTSSLLSVCGWSQTINPEDDTDPGHADLVLYITRFDLELPDGNRQVRGVTQLGGACSPTWSCLITEDTGFDLGVTIAHEIGHSFGLEHDGAPGSGCGPSGHVMASDGAAPRAGLAWSPCSRRQLLSLLSAGRARCVWDPPRPQPGSAGHPPDAQPGLYYSANEQCRVAFGPKAVACTFAREHLDMCQALSCHTDPLDQSSCSRLLVPLLDGTECGVEKWCSKGRCRSLVELTPIAAVHGRWSSWGPRSPCSRSCGGGVVTRRRQCNNPRPAFGGRACVGADLQAEMCNTQACEKTQLEFMSQQCARTDGQPLRSSPGGASFYHWGAAVPHSQGDALCRHMCRAIGESFIMKRGDSFLDGTRCMPSGPREDGTLSLCVSGSCRTFGCDGRMDSQQVWDRCQVCGGDNSTCSPRKGSFTAGRAREYVTFLTVTPNLTSVYIANHRPLFTHLAVRIGGRYVVAGKMSISPNTTYPSLLEDGRVEYRVALTEDRLPRLEEIRIWGPLQEDADIQVYRRYGEEYGNLTRPDITFTYFQPKPRQA
**Q.** With B2 as the protein, how does the “ADAMTS13 activity (VWF-73 FRETS assay)” value read?
**A.** Its value is “demonstrated enhanced activity of mrADAMTS13 compared to truncated wild type ADAMTS13”.
